Assays:
Experiment in all cases: fluorescence polarisation
[1] = target: 5'FAM-labeled peptide H3 (1-21)
[2] = target: 5'FAM-labeled peptide H3K9me2
[3] = target: 5'FAM-labeled peptide H3K9me1

- Kd [1]: 4.73 µM
- Kd [2]: 40.5 µM
- Kd [3]: 21.2 µM
B1: GST-ARID1-His (natural protein)
chain: MAGWSMVADEDAVDYSKTPKSLDANRSPESVNPESTGFEKKIKELISLFRPLLDSFLAEFCSADGFLPLPAMTGEGRTVDLFNLFLNVTHKGGFDAVSENGSWDEVVQESGLESYDSASAKLIYVKYLDAFGRWLNRVVAGDTDVSSVELSGISDALVARLNGFLSEVKKKYELRKGRPAKELGAELKWFISKTKRRYDKHHVGKESASNDAVKEFQGSKLAERRLEQIMILESVTQECSSPGKRKRECPLETLKWLSDVAKDPCDPSLGIVPDRSEWVSYGSEEPWKQLLLFRASRTNNDSACEKTWQKVQKMHPCLYDDSAGASYNLRERLSYEDYKRGKTGNGSDIGSSDEEDRPCALVGSKFQAKVPEWTGITPESDSKWLGTRIWPLTKEQTKANLLIERDRIGKGRQDPCGCHNPGSIECVKFHITAKRDKLKLELGPAFYMWCFDVMGECTLQYWTDLELKKIKSLMSSPPSLSPAFIHQAKMILPSKSRGKIVSYFYNVTLLQYRASQSRITPHDIDSDTDQIFLRATENENPAPEANTFQKPALLSPNKKRCR

From paper PMC11329518
